Measured values taken from US10006011.

Key:
[1] = system: TALEN right R17 of FIG. 4B (Comparative Example 1) (synthetic construct); experiment: cell_activity; settings: SSA assay HEK293T, reference pair with L20
[2] = system: TALEN left L20 of FIG. 4B (Comparative Example 1) (synthetic construct); experiment: cell_activity; settings: SSA assay HEK293T, reference pair with R17

TCCATTCCTATGACTGTAGATTTTTATCAGACTGAAGAGCTATTGTGTGAGTATA (double strand) [FIG. 4B TALEN target]
activity [1]: 1 relative | activity [2]: 1 relative
